This note sets out measurements from publication PMC8565327, “A dominant-negative SOX18 mutant disrupts multiple regulatory layers essential to transcription factor activity” (Nucleic Acids Research, 2021).

Series [1] concerns the target T1, SOX7-eGFP, Q9BT81.
T1 chain: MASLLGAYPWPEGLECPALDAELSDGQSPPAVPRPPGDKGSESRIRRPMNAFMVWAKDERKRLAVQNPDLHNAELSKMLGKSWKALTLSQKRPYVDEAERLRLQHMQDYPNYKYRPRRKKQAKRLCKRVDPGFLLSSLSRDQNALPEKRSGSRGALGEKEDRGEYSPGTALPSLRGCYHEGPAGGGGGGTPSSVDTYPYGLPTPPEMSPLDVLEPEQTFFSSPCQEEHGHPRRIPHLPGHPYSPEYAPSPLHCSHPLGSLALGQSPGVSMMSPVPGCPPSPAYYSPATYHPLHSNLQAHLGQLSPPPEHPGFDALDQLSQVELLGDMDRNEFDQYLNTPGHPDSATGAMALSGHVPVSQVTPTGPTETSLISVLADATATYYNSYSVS
As to the kind of experiment: cross-raster image correlation spectroscopy (cRICS); living HeLa cell nuclei, 37°C, transiently transfected; two colours (JF549 + JF646 on HaloTag, eGFP + JF646, or snap646 + JF549); fraction of molecules that move together. The note with it: other: cross-raster image correlation spectroscopy (cRICS).

Series [2] concerns the molecule itself. Kind of series: number and brightness (N&B); living HeLa cell nuclei, 37°C; cells with low to medium expression, 1 μM JF549 Halo-tag dye; monomer brightness calibrated on HALO-SOX7.

One may read the stoichiometry N as a count of units in the complex or per binding partner.

B1: HALO-SOX18 (protein)
chain: MQRSPPGYGAQDDPPSRRDCAWAPGIGAAAEARGLPVTNVSPTSPASPSSLPRSPPRSPESGRYGFGRGERQTADELRIRRPMNAFMVWAKDERKRLAQQNPDLHNAVLSKMLGKAWKELNTAEKRPFVEEAERLRVQHLRDHPNYKYRPRRKKQARKVRRLEPGLLLPGLVQPSAPPEAFAAASGSARSFRELPTLGAEFDGLGLPTPERSPLDGLEPGEASFFPPPLAPEDCALRAFRAPYAPELARDPSFCYGAPLAEALRTAPPAAPLAGLYYGTLGTPGPFPNPLSPPPESPSLEGTEQLEPTADLWADVDLTEFDQYLNCSRTRPDATTLPYHVALAKLGPRAMSCPEESSLISALSDASSAVYYSACISG
For the protein B1, the percent heterodimer result in series [1] was “SOX7/SOX18 (18.5%)”.

B2: HALO-SOX18 (natural protein, UniProt P43680 1-377, looked up)
chain: MQRSPPGYGAQDDPPSRRDCAWAPGIGAAAEARGLPVTNVSPTSPASPSSLPRSPPRSPESGRYGFGRGERQTADELRIRRPMNAFMVWAKDERKRLAQQNPDLHNAVLSKMLGKAWKELNTAEKRPFVEEAERLRVQHLRDHPNYKYRPRRKKQARKVRRLEPGLLLPGLVQPSAPPEAFAAASGSARSFRELPTLGAEFDGLGLPTPERSPLDGLEPGEASFFPPPLAPEDCALRAFRAPYAPELARDPSFCYGAPLAEALRTAPPAAPLAGLYYGTLGTPGPFPNPLSPPPESPSLEGTEQLEPTADLWADVDLTEFDQYLNCSRTRPDATTLPYHVALAKLGPRAMSCPEESSLISALSDASSAVYYSACISG
modifications: JF549 and/or JF646 Halo-tag dye on the HaloTag
notes: SOX18 wild type from the plasmid pReceiver-M49(HaloTag-SOX18) of GeneCopoeia; In the functional row with MEF2C the protein was untagged-SOX18 from the same plasmid without the HaloTag; also called HaloTag-SOX18; pReceiver-M49(HaloTag-SOX18); source: HeLa, transiently transfected, in living cells
As for B2, the “stoichiometry N” value in series [2] was found to be 2.
